US20220017589A1 (BEIJING QL BIOPHARMACEUTICAL, published 2022)

T1: human GFRAL (human, UniProt Q6UXV0 19-394)
T1 sequence (looked up): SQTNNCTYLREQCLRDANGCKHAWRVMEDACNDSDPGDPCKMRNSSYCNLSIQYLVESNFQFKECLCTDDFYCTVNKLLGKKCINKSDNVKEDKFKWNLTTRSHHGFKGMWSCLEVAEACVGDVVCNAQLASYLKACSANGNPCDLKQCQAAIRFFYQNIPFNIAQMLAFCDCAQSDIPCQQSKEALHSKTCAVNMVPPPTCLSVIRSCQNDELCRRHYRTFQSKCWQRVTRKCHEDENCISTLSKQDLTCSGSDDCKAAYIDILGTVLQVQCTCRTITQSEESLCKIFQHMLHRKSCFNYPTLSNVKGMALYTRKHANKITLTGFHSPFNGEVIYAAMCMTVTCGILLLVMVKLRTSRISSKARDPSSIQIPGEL


How the values were obtained:
[1] = target: T1, human GFRAL; experiment: cell-based or functional assay
[2] = target: human GLP-1 receptor (human, UniProt P43220 24-463); experiment: cell-based or functional assay

Row | GDF15 activity (EC50, pM) [1] | GLP-1 activity (EC50, pM) [2] | Binder
1 | 20.3 pM | 3 pM | MLC005 (ligand, Moiety A (HOOC-(CH2)16-CO-gGlu-2XADO) on 12K of Linker (43K of fusion polypeptide)) HGEGTFTSDVSSYLEEQAAREFIAWLVRGGGGQEPGQEPGQEKGQEPGQEPGQEPGQEPGQEPGAQPGAQPARQGDHCPLGPGRCCRLHTVRASLEDLGWADWVLSPREVQVTMCIGACPSQFRAANLHAQIKTSLHRLRPDTVPAPCCVPASYNPMVLIQRTDTGVSLQTYDDLLARDCHCI
2 | 30.2 pM | 1.6 pM | MLC088 (ligand, Moiety C (HOOC-(CH2)20-CO-gGlu-2XADO-EDA-CO-CH2) on 41C of Linker (72C of fusion polypeptide)) HGEGTFTSDVSSYLEEQAAKEFIAWLVRGGGGAQPGAQPGAQPGAQPGAQPGAQPGAQPGAQPGQEPGAQPCQEPGAQPGQEPGAQPGQEPGAQPGQEPGAQPGQEPGAQPARQGDHCPLGPGRCCRLHTVRASLEDLGWADWVLSPREVQVTMCIGACPSQFRAANLHAQIKTSLHRLKPDTVPAPCCVPASYNPMVLIQKTDTGVSLQTYDDLLAKDCHCI
3 | 23.6 pM | 1.5 pM | MLC090 (ligand, Moiety C (HOOC-(CH2)20-CO-gGlu-2XADO-EDA-CO-CH2) on 39C of Linker (70C of fusion polypeptide)) HGEGTFTSDVSSYLEEQAAKEFIAWLVRGGGGAQPGAQPGAQPGAQPGAQPGAQPGAQPGAQPGQEPGQCPGQEPGAQPGQEPGAQPGQEPGAQPGQEPGAQPGQEPGAQPARQGDHCPLGPGRCCRLHTVRASLEDLGWADWVLSPREVQVTMCIGACPSQFRAANLHAQIKTSLHRLKPDTVPAPCCVPASYNPMVLIQKTDTGVSLQTYDDLLAKDCHCI
4 | 116 pM | 1.3 pM | MLC064 (ligand, Moiety A (HOOC-(CH2)16-CO-gGlu-2XADO) on 51K of Linker (82K of fusion polypeptide)) HGEGTFTSDVSSYLEEQAAREFIAWLVRGGGGQEPGAQPGQEPGAQPGQEPGAQPGQEPGAQPGQEPGAQPGQEPGAQPGAKPGAQPGAQPGAQPGAQPGAQPGAQPGAQPARQGDHCPLGPGRCCRLHTVRASLEDLGWADWVLSPREVQVTMCIGACPSQFRAANLHAQIKTSLHRLRPDTVPAPCCVPASYNPMVLIQRTDTGVSLQTYDDLLARDCHCI
5 | 22 pM | 1.5 pM | MLC085 (ligand, Moiety B (HOOC-(CH2)16-CO-gGlu-2XADO-EDA-CO-CH2) on 37C of Linker (68C of fusion polypeptide)) HGEGTFTSDVSSYLEEQAAKEFIAWLVRGGGGQEPGAQPGQEPGAQPGQEPGAQPGQEPGAQPGQEPCQAPGQEPGAQPGAQPGAQPGAQPGAQPGAQPGAQPGAQPGAQPARQGDHCPLGPGRCCRLHTVRASLEDLGWADWVLSPREVQVTMCIGACPSQFRAANLHAQIKTSLHRLKPDTVPAPCCVPASYNPMVLIQKTDTGVSLQTYDDLLAKDCHCI
6 | 48.6 pM | 1.3 pM | MLC075 (ligand, Moiety C (HOOC-(CH2)20-CO-gGlu-2XADO-EDA-CO-CH2) on 41C of Linker (72C of fusion polypeptide)) HGEGTFTSDVSSYLEEQAAKEFIAWLVRGGGGQEPGAQPGQEPGAQPGQEPGAQPGQEPGAQPGQEPGAQPCQEPGAQPGAQPGAQPGAQPGAQPGAQPGAQPGAQPGAQPARQGDHCPLGPGRCCRLHTVRASLEDLGWADWVLSPREVQVTMCIGACPSQFRAANLHAQIKTSLHRLKPDTVPAPCCVPASYNPMVLIQKTDTGVSLQTYDDLLAKDCHCI
7 | 79.2 pM | 0.89 pM | MLC103 (ligand, Moiety A (HOOC-(CH2)16-CO-gGlu-2XADO) on 71K of Linker (102K of fusion polypeptide)) HGEGTFTSDVSSYLEEQAAREFIAWLVRGGGGQEPGAQPGQEPGAQPGQEPGAQPGQEPGAQPGQEPGAQPGQEPGAQPGAQPGAQPGAQPGAQPGAQPGAKPGAQPGAQPARQGDHCPLGPGRCCRLHTVRASLEDLGWADWVLSPREVQVTMCIGACPSQFRAANLHAQIKTSLHRLRPDTVPAPCCVPASYNPMVLIQRTDTGVSLQTYDDLLARDCHCI
8 | 41.1 pM | 0.94 pM | MLC074 (ligand, Moiety B (HOOC-(CH2)16-CO-gGlu-2XADO-EDA-CO-CH2) on 41C of Linker (72C of fusion polypeptide)) HGEGTFTSDVSSYLEEQAAKEFIAWLVRGGGGQEPGAQPGQEPGAQPGQEPGAQPGQEPGAQPGQEPGAQPCQEPGAQPGAQPGAQPGAQPGAQPGAQPGAQPGAQPGAQPARQGDHCPLGPGRCCRLHTVRASLEDLGWADWVLSPREVQVTMCIGACPSQFRAANLHAQIKTSLHRLKPDTVPAPCCVPASYNPMVLIQKTDTGVSLQTYDDLLAKDCHCI
9 | 70.5 pM | 1.3 pM | MLC084 (ligand, Moiety C (HOOC-(CH2)20-CO-gGlu-2XADO-EDA-CO-CH2) on 39C of Linker (70C of fusion polypeptide)) HGEGTFTSDVSSYLEEQAAKEFIAWLVRGGGGQEPGAQPGQEPGAQPGQEPGAQPGQEPGAQPGQEPGQCPGQEPGAQPGAQPGAQPGAQPGAQPGAQPGAQPGAQPGAQPARQGDHCPLGPGRCCRLHTVRASLEDLGWADWVLSPREVQVTMCIGACPSQFRAANLHAQIKTSLHRLKPDTVPAPCCVPASYNPMVLIQKTDTGVSLQTYDDLLAKDCHCI
10 | 78.9 pM | 1 pM | MLC046 (ligand, Moiety A (HOOC-(CH2)16-CO-gGlu-2XADO) on 60K of linker (91K of fusion polypeptide)) HGEGTFTSDVSSYLEEQAAREFIAWLVRGGGGQEPGAQPGQEPGAQPGQEPGAQPGQEPGAQPGQEPGAQPGQEPGAQPGAQPGAQPGAQKGAQPGAQPGAQPGAQPGAQPARQGDHCPLGPGRCCRLHTVRASLEDLGWADWVLSPREVQVTMCIGACPSQFRAANLHAQIKTSLHRLRPDTVPAPCCVPASYNPMVLIQRTDTGVSLQTYDDLLARDCHCI
11 | 75.5 pM | 3.3 pM | MLC018 (ligand, Moiety A (HOOC-(CH2)16-CO-gGlu-2XADO) on 52K of Linker (83K of fusion polypeptide)) HGEGTFTSDVSSYLEEQAAREFIAWLVRGGGGQEPGAQPGQEPGAQPGQEPGAQPGQEPGAQPGQEPGAQPGQEPGAQPGQEKGAQPGQEPGAQPGQEPGAQPGQEPGAQPARQGDHCPLGPGRCCRLHTVRASLEDLGWADWVLSPREVQVTMCIGACPSQFRAANLHAQIKTSLHRLRPDTVPAPCCVPASYNPMVLIQRTDTGVSLQTYDDLLARDCHCI
12 | 52.4 pM | 1.7 pM | MLC083 (ligand, Moiety B (HOOC-(CH2)16-CO-gGlu-2XADO-EDA-CO-CH2) on 39C of Linker (70C of fusion polypeptide)) HGEGTFTSDVSSYLEEQAAKEFIAWLVRGGGGQEPGAQPGQEPGAQPGQEPGAQPGQEPGAQPGQEPGQCPGQEPGAQPGAQPGAQPGAQPGAQPGAQPGAQPGAQPGAQPARQGDHCPLGPGRCCRLHTVRASLEDLGWADWVLSPREVQVTMCIGACPSQFRAANLHAQIKTSLHRLKPDTVPAPCCVPASYNPMVLIQKTDTGVSLQTYDDLLAKDCHCI
13 | 32.4 pM | 1.1 pM | MLC086 (ligand, Moiety C (HOOC-(CH2)20-CO-gGlu-2XADO-EDA-CO-CH2) on 37C of Linker (68C of fusion polypeptide)) HGEGTFTSDVSSYLEEQAAKEFIAWLVRGGGGQEPGAQPGQEPGAQPGQEPGAQPGQEPGAQPGQEPCQAPGQEPGAQPGAQPGAQPGAQPGAQPGAQPGAQPGAQPGAQPARQGDHCPLGPGRCCRLHTVRASLEDLGWADWVLSPREVQVTMCIGACPSQFRAANLHAQIKTSLHRLKPDTVPAPCCVPASYNPMVLIQKTDTGVSLQTYDDLLAKDCHCI
14 | 17.3 pM | 8.3 pM | MLC004 (ligand, Moiety A (HOOC-(CH2)16-CO-gGlu-2XADO) on 26K of GLP-1 (20K of fusion polypeptide)) HGEGTFTSDVSSYLEEQAAKEFIAWLVRGGGGQEPGAQPGQEPGAQPGQEPGAQPGQEPGAQPGQEPGAQPGQEPGAQPGAQPGAQPGAQPGAQPGAQPGAQPGAQPGAQPARQGDHCPLGPGRCCRLHTVRASLEDLGWADWVLSPREVQVTMCIGACPSQFRAANLHAQIKTSLHRLRPDTVPAPCCVPASYNPMVLIQRTDTGVSLQTYDDLLARDCHCI
15 | 79.4 pM | 0.88 pM | MLC104 (ligand, Moiety A (HOOC-(CH2)16-CO-gGlu-2XADO) on 76K of Linker (107K of fusion polypeptide)) HGEGTFTSDVSSYLEEQAAREFIAWLVRGGGGQEPGAQPGQEPGAQPGQEPGAQPGQEPGAQPGQEPGAQPGQEPGAQPGAQPGAQPGAQPGAQPGAQPGAQPGAQKGAQPARQGDHCPLGPGRCCRLHTVRASLEDLGWADWVLSPREVQVTMCIGACPSQFRAANLHAQIKTSLHRLRPDTVPAPCCVPASYNPMVLIQRTDTGVSLQTYDDLLARDCHCI
16 | 114 pM | 1.2 pM | MLC045 (ligand, Moiety A (HOOC-(CH2)16-CO-gGlu-2XADO) on 1K and 55K of Linker (32K and 86K of fusion polypeptide)) HGEGTFTSDVSSYLEEQAAREFIAWLVRGGGKQEPGAQPGQEPGAQPGQEPGAQPGQEPGAQPGQEPGAQPGQEPGAQPGAQPGAKPGAQPGAQPGAQPGAQPGAQPGAQPARQGDHCPLGPGRCCRLHTVRASLEDLGWADWVLSPREVQVTMCIGACPSQFRAANLHAQIKTSLHRLRPDTVPAPCCVPASYNPMVLIQRTDTGVSLQTYDDLLARDCHCI
17 | 110 pM | 2.5 pM | MLC016 (ligand, Moiety A (HOOC-(CH2)16-CO-gGlu-2XADO) on 52K of Linker (83K of fusion polypeptide)) HGEGTFTSDVSSYLEEQAAREFIAWLVRGGGGQEPGAQPGQEPGAQPGQEPGAQPGQEPGAQPGQEPGAQPGQEPGAQPGAQKGAQPGAQPGAQPGAQPGAQPGAQPGAQPARQGDHCPLGPGRCCRLHTVRASLEDLGWADWVLSPREVQVTMCIGACPSQFRAANLHAQIKTSLHRLRPDTVPAPCCVPASYNPMVLIQRTDTGVSLQTYDDLLARDCHCI
18 | 77.6 pM | 2.8 pM | MLC017 (ligand, Moiety A (HOOC-(CH2)16-CO-gGlu-2XADO) on 55K of Linker (86K of fusion polypeptide)) HGEGTFTSDVSSYLEEQAAREFIAWLVRGGGGQEPGAQPGQEPGAQPGQEPGAQPGQEPGAQPGQEPGAQPGQEPGAQPGAQPGAKPGAQPGAQPGAQPGAQPGAQPGAQPARQGDHCPLGPGRCCRLHTVRASLEDLGWADWVLSPREVQVTMCIGACPSQFRAANLHAQIKTSLHRLRPDTVPAPCCVPASYNPMVLIQRTDTGVSLQTYDDLLARDCHCI
